From PMC11208920, “The binding of LARP6 and DNAAF6 in biomolecular condensates influences ciliogenesis of multiciliated cells”

How the values were obtained:
[1] = molecular target: T1, rLARP6 (recombinant human LARP6, LAM+RRM only) (Homo sapiens, UniProt Q9BRS8 73-303); assay: EMSA; 5 mM Mg2+; monomer and dimer complexes; 10 mM Tris pH 7.5, 100 mM KCl, 5 mM MgCl2, room temperature, 10 min; 6% native gel, SYBR Gold; conditions: protein: recombinant
T1 sequence: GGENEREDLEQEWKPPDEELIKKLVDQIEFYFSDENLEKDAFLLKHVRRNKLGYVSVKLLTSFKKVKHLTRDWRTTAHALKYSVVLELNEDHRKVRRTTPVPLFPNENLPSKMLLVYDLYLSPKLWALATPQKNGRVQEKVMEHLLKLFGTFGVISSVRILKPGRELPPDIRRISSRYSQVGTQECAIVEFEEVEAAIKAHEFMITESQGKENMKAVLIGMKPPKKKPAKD

[2] = molecular target: T1, rLARP6 (recombinant human LARP6, …); assay: EMSA; 5 mM Mg2+; 10 mM Tris pH 7.5, 100 mM KCl, 5 mM MgCl2, room temperature, 10 min; 6% native gel, SYBR Gold; conditions: protein: recombinant; label: SYBR Gold stain

B1: hCOL1A2 WT RNA (structured_RNA)
RNA: CCACAAAGAGUCUACAUGUCUAGGGUCUAGACAUGUUCAGCUUUGUGG
[1]; label: SYBR Gold stain
  binding result: binds

B2: hCOL1A2 MUT RNA (structured_RNA)
RNA: CCACAAAGUGACUACAUGUCUAGGGUCUAGACAUGUUAUUCUUUGUGG
[2]
  binding result: no binding

B3: xTUBA1CL RNA probe (ssRNA)
RNA: GAGGGAGAAGAAUAUUAAAUAAUAAAUCAAAAGCUUCACAAUAAUACCUGCAGAUUUUGUUUGAAAUAAUAAUUUUGAAUAAAUACGUUUUUAUCUUGUA
[1]; label: SYBR Gold stain (Results text says radiolabeled)
  binding result: binds
